Consider seven molecules from US20110268755A1 (HEALTH RESEARCH, published 2011).

Test [1] addresses T1, HLA-A*0201 (human).
T1 construct: also called human MHC class I; MHC I
Description: survivin/MHC Class I-specific HLA-A*0201 pentamer binding.

Test [2] deals with T2, H2-K^b (mouse, UniProt P01887 21-119; P01901 22-369, limits assumed).
T2 construct: whole, on cells; also called murine MHC class I
T2 sequence (MHC heavy, looked up): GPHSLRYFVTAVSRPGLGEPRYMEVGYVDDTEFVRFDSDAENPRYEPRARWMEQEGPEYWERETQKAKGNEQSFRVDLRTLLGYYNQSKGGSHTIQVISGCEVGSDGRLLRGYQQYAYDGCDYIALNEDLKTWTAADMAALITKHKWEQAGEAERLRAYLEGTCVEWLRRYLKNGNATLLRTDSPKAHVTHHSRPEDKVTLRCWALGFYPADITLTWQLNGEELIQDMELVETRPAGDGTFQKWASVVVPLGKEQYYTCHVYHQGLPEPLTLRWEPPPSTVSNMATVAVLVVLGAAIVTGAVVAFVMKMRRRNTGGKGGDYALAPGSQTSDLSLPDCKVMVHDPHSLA
T2 sequence (b2m, looked up): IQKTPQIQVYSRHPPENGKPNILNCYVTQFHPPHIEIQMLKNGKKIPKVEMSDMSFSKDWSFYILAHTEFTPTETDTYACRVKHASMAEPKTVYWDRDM
As to the kind of experiment: H2-K^b upregulation on RMA-S cells, 100 µM peptide, 37° C. The protocol:
To obtain the data presented in FIG. 3, survivin peptide epitopes were used in conventional MHC class I peptide binding assays. Mean fluorescence in FIG. 3 represents binding of SVN peptides to H2-K^b. Upregulation of H2-K^b molecules on the surface of murine RMA-S cells which are deficient in the expression of surface MHC class I molecules was used to determine actual survivin peptide binding in vitro. Data presented in FIG. 3 represent the binding of 100 μM peptide at 37° C.

The target in test [3] is T1, HLA-A*0201. As to the kind of experiment: competitive peptide binding assay, displacement of fluorescently labeled HPV18-27 from HLA-A*0201. The text has this: To obtain the data summarized in FIGS. 4A and 4B, survivin peptide epitopes were used in MHC class I peptide competitive displacement assays. […] Positive control peptides (Flu & gp100) represent known immunogenic MHC class I ligands. Data represent mean fluorescence±S.E.M. of triplicate samples.

B1: wild type SVN56-64 (peptide)
peptide: QCFFCFKEL
On to B1, for which the binding result in test [1] is “binds”.

B2: SVN56-64/M57 (peptide)
peptide: QMFFCFKEL
notes: also called core peptide SVN56-64/M57
B2: the “fold stronger binding than wild type SVN56-64” value in test [1] is approximately 73 fold.

B3: SVN97-104 (peptide)
peptide: TLGEFLKL
In the case of B3, in test [2], the binding result is given as “binds”.

B4: SVN-57-64 (peptide)
peptide: CFFCFKEL
notes: also called SVN 57-64 wt
For the molecule B4, the binding result in test [2] is recorded as “binds”.

B5: SVN-57-64/M57 (peptide)
peptide: MFFCFKEL
For the molecule B5, the binding result in test [2] is listed as “binds”.

B6: wild type SVN53-67 (peptide)
peptide: DLAQCFFCFKELEGW
For the molecule B6, the binding result in test [3] is “binds”.

B7: SVN53-67/M57 (peptide)
peptide: DLAQMFFCFKELEGW
notes: also called Survivin M57; Survivin-53-67/57M
Regarding B7, the “fold stronger binding than wild type SVN53-67” value in test [3] is approximately 12 fold.
